T1: Mcl-1, Q07820
T1 chain: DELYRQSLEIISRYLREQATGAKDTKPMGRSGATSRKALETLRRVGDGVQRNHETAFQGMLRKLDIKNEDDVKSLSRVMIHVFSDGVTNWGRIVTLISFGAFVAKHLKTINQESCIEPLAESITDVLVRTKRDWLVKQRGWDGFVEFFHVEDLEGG

T2: Bfl-1, Q16548
T2 chain: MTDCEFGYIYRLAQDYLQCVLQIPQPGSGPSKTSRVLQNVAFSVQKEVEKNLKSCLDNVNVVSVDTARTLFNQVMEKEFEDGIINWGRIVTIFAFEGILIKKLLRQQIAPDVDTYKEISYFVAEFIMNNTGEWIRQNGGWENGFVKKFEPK


Experiments:
Experiment in all cases: peptide SPOT array, c-Myc-tagged receptor at 1 uM or 100 nM, anti-c-Myc-Cy3
Bcl-xL, Q07817 = biological target: Bcl-xL, Q07817
Mcl-1, Q07820 = biological target: T1, Mcl-1, Q07820
Bfl-1, Q16548 = biological target: T2, Bfl-1, Q16548

Sequence of Bcl-xL, Q07817 (Q07817 1-209): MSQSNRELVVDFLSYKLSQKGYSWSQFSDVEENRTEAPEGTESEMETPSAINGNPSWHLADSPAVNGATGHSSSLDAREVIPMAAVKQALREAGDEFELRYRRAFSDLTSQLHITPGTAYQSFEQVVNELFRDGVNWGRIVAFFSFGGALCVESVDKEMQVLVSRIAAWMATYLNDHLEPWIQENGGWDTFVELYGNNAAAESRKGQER

SPOT signal as a fraction of Bim BH3's signal on the same receptor and array (Bcl-xL, Q07817)	SPOT signal as a fraction of Bim BH3's signal on the same receptor and array (Mcl-1, Q07820)	SPOT signal as a fraction of Bim BH3's signal on the same receptor and array (Bfl-1, Q16548)	Binder
0.85	1.62	0.61	TRRSMVFARHDREVGDEFRSRHLNST [POFUT2]
0.29	0.28	0.12	TVATRRLSGFDRTLADRLEGTKELLS
0.08	0.09	0.08	QRKHEGFERDDAALGDKVNSLGETAE [SPTAN1]
0.07	0.06	0.03	LSIIYTLVEIDQNIGDTNLADFTAGL [SLC26A4]
0.07	0.06	0.04	FGEYSGISENIILVLDDFWIPETSFI [ROS1]
0.06	0.05	0.04	VLELHPGAQRLHIGLDEVYYLGEGEA [HEXDC]
0.1	0.07	0.07	QAGPVSSGLADRKLGDRVQLLNLLVT [CCDC57]
1.3	1.1	0.67	RVCPYYLSRNDKQQADIIFMPYNYLL [RTEL1]
0.07	0.06	0.05	RKDAELLCWDLRQSGYPLWSLGREVT
0.94	0.69	0.52	AEVMRQRGINMRYLGKVLELVLRSPA [KIAA0664]
0.38	0.26	0.38	LCQLSCVSKLMRDVLGSLLQSRGMVI [FBXO30]
0.96	0.57	0.57	LALLAQPSHLMRQVARSVFGHICSHL [MYBBP1A]
0.08	0.07	0.06	SHFVACMTAILNQMLDQHYSFYIETF [DOCK2]
0.06	0.04	0.03	ADVHGIWSRLDCDFGDEFEVLDTTGE [UBA6]
0.05	0.04	0.03	EAVTDGLKRADRSFGNALGNCILDKD [RAD52]
0.32	0.24	0.19	YIVLGLRKTTDQKVGKEVAELVGRVG [NLRX1]

SPOT signal as a fraction of Bim BH3's signal on the same receptor and array (Bcl-xL, Q07817)	SPOT signal as a fraction of Bim BH3's signal on the same receptor and array (Mcl-1, Q07820)	SPOT signal as a fraction of Bim BH3's signal on the same receptor and array (Bfl-1, Q16548)	Binder
0.11	0.04	0.04	NGGLLEFHKSLQEIGDKNDHWFDIDP [DZIP3]
0.71	0.28	0.33	ACGDSVLARMLRELLDSLRRPQLRLW [SLC19A1]
0.23	0.19	0.25	KGTAVAICRRLGIFGDTEDVAGKAYT [ATP2A3]
0.09	0.07	0.05	RKDAELLCWDLRQSLYPLWSLGREVT
0.05	0.04	0.03	HHSSQEMSSEYREYADSFGKCPGGRN [PCYT2]
0.28	0.2	0.18	QASREAGAAALRNVLQRLFENYQTQS [CCDC68]
0.52	0.72	0.53	AELRLFLAQRLRWLLDSCPASRATCV [NBEAL2]
0.33	0.22	0.12	PKKKMTLSEIYQWICDNFPYYREAGS [FOXJ3]
0.31	0.29	0.21	TVATRRLSGFLRTLLDRLEGTKELLS
0.06	0.04	0.04	DSLLWKLAGLDRESGDVVLSGCSTLS [STK11IP]
2.82	1.6	1.26	GTAVAYRGAHLRGRGRAVYNTFRAAP [XXXX]
0.12	0.09	0.09	SMRRNAMGVGDVFEADLFTTRHISHW [DNAH10]
0.25	0.28	0.29	YFKLFRASGDDRTNGDNYLYEIQLSS [IGF2R]
0.1	0.05	0.05	MRPEIWIAQELRRILDEFNAYYARRV [BCL2L11]
1.16	0.68	0.44	RLRQLGVAKKDGVLSDNFKGKRIVLV [PPAT]
0.08	0.07	0.05	AGYELLIQKFDSLYGDQIDMHRKFVV [ISOC1]

Reference: paper PMC4072508, “Genome-Wide Prediction and Validation of Peptides That Bind Human Prosurvival Bcl-2 Proteins” (PLoS Computational Biology, 2014)
